The text below walks through data of patent US12312412 (dated 2025).

Where a chain is given by its changes, count along the chain named. Names may count otherwise.

Broadly, the Kd is a measure of binding affinity in units of concentration.

The experiment concerns the target MAGEB2 peptide … / HLA-A*02:01 / b2m (human). In words: FACS. On the technique in general: In flow cytometry, cells or beads pass a laser one at a time.

B1: MA 86-A4 CC (K2W) (antibody, V domains shown)
VH: QVQLVESGGGVVQPGRSLRLSCAASGFTFSTYGMHWVRQAPGKCLEWVAVISYDASNKYYAESVKGRFTISRDNSKNTLYLQMNSLRAEDTAVYYCARGQLLTGYWGQGTLVTVSS
VL: DIQMTQSPSSLSASVGDRVTITCRASQGISNYLAWYQQKPGKVPKLLIYAASTLQSGVPSRFSGSGSGTDFTLTISSLQPEDFATYYCQKYNSAPFTFGCGTKVEIK
B1 yielded a Kd of 35.5 nM.

B2: MA 86-A4-N-F5 CC (M4H) (antibody, V domains shown)
VH: B1 VH with S56E, N57T, K58V, Y59K
VL: B1 VL with F83V
Take B2: binding was characterised by a dissociation constant (Kd) of 51.8 nM.

B3: MA 03-G10_AS CC (N3H) (antibody, V domains shown)
VH: EVQLLESGGGLVQPGGSLRLSCAASGFTFSSYAMSWVRQAPGKCLEWVSAISGSGGGTYYAASVKGRFTISRDNSKNTLYLQMSSLRAEDTAVYYCATGKGVHLGFDYWGQGTLVTVSS
VL: SYVLTQPPSVSVAPGQTARITCGGNNIGSKSVHWYQQKPGQAPVMVVYDDNDRPSGIPERFSGSNSGNTATLTISRVEAGDEADYYCQVWDYSGQRQVFGCGTKLTVL
On to B3, for which the Kd came to 0.9 nM.

B4: MA 03-E7_AS CC (L6M) (antibody, V domains shown)
VH: B3 VH with L11V, G16R, Y32H, V64G, S84N, V93A, A97V
VL: B3 VL with S93N, G94M, Q95N, R96V, Q97W
As to B4, the Kd was determined as 0.5 nM.

B5: MA 10-G10 AS CC (T1I) (antibody, V domains shown)
VH: B3 VH with Y32H, Y60N, S84N
VL: B3 VL with S93V, G94A, Q95P, Q97H
In turn, B5 returned a Kd of 1.7 nM. This Kd is about 3.4-fold higher than that of the molecule before.

B6: MA 98-G12_AS CC (Q4Z) (antibody, V domains shown)
VH: B3 VH with Y32H, Y60N, S84N, V93A, A97V
VL: B3 VL with S66F, T73I, S93F, G94S, Q95M, R96T, Q97H
Take B6: the Kd was 0.9 nM.

B7: MA 03-E11 AS CC (G2B) (antibody, V domains shown)
VH: B3 VH with Y32H, Y60N, S84N, V93A, A97V
VL: B3 VL with S93Y, G94S, Q95N, Q97A
Molecule B7 registered a Kd of 4.2 nM.

B8: MA 03-D8 AS CC (L7E) (antibody, V domains shown)
VH: B3 VH with Y32H, A50T, S84N
VL: B3 VL with S66F, T73I, S93R, G94T, Q95L, R96D, Q97W
B8 had a Kd of 0.5 nM.

B9: MA 98-C7 CC (Y8P) (antibody, V domains shown)
VH: B3 VH with Y32H, A50S, S84N
VL: B3 VL with G94P, Q95L, Q97H
B9 showed a Kd of 0.7 nM.

B10: MA 10-H1 CC (T9K) (antibody, V domains shown)
VH: EVQLVESGGGLVQPGGSLRLSCAASGFTFSNAWMSWVRQAPGKCLEWVGRITSGIYGGTTDYAAPVKGRFTISRDDSKNTLYLQMNSLKTEDTAVYYCTTPSYSGSYYNYFSVMDVWGQGTTVTVSS
VL: DIQMTQSPSSLSASVGDRVTITCRTSQSISSYLNWYQQKPGRAPKLLIFAASSLQSGVPSRFSGSGSGTDFTLTISSLQPEDFATYYCQQTYSMPFTFGCGTKVDIK
On to B10, for which the Kd stood at 1.2 nM.

B11: MA 09-E2 CC (V8T) (antibody, V domains shown)
VH: B10 VH with T52K, G54K, I55T, Y82F
VL: B10 VL with S56G, T91S, M94S, D105E
The molecule B11 yielded a Kd of 0.7 nM.

B12: MA 09-C7 CC (K9T) (antibody, V domains shown)
VH: QVTLKESGPALVKPTQTLTLTCTFSGFSFTTHKMGVDWIRQPPGKCLEWLAEIHSEDDKRYSPSLQSRLTITKDTSKNQVVLTMTNMDPVDTATYYCAYRRYNWNYENWFDPWGQGTLVTVSS
VL: B10 VL with T25A, S31N, L33F, R42K, F49Y, T91S, S93I, M94T, D105E
As to B12, binding was put at a Kd of 0.9 nM.

B13: MA 09-G11 CC (Y9Q) (antibody, V domains shown)
VH: B12 VH with V2I, A10M, E52L, H54Y, S55W, E56N
VL: B10 VL with T25A, S28F, R42K, F49Y, S65R, T91S, S93Q, M94S, F96T, D105E
B13 gave a Kd of 0.6 nM.

B14: MA 10-D6 CC (V6Z) (antibody, V domains shown)
VH: B10 VH with Q13K, T52L, S53N, G54N, I55A
VL: B10 VL with S56G
B14 yielded a Kd of 0.7 nM. The Kd values of the last two molecules are within 1.5-fold of each other.

B15: MA 10-B5 CC (H6H) (antibody, V domains shown)
VH: B10 VH with T52R, G54R, I55S, Y82F
VL: B10 VL with S56G, D105E
B15 had a dissociation constant (Kd) of 0.7 nM.

B16: MA 10-D3 CC (O6B) (antibody, V domains shown)
VH: B10 VH with G54S, I55R, Y82F
VL: B10 VL with S56G
In the case of B16, the Kd worked out at 1.1 nM.

B17: MA SG-F28 CC (D9R) (antibody, V domains shown)
VH: QVQLQESGPGLVKPSQTLSLTCTVSGDSISSNPYYWSWIRQHPGKCLEWIGYISYSGITNYNPSLKSRVTMSVDTSKNQFSLKLTSLTAADTAVYYCAREKMWFGVLNYYYGMDVWGQGTTVTVSS
VL: DIVMTQTPLSLPVTPGEPASISCRSSQSLLHRSGYNYLDWYLQKPGQSPQLLIYLGSNRASGVPDRFSGSGSGTDFTLKISRVEAGDVGVYYCMQALQTPWTFGCGTKVEIK
In the case of B17, the Kd stood at 76.8 nM. Compared with the last molecule, the Kd is about 70-fold higher.

B18: MA 88-B3-F9 CC (Y4E) (antibody, V domains shown)
VH: QVQLVESGGGLVKPGGSLRLSCAASGFTFSDYYMSWIRQAPGKCLEWVSYISKSSYTVTYADAVKGRFTISRDNAKNSLYLQMNSLRAEDTAVYYCATYNYGHFDYWGQGTLVTVSS
VL: SYVLTQPPSVSVAPGQTARITCGGNNIGSKSVHWYQQKPGQAPVLVVYDDADRPSGIPERFSGSNSGNTATLTISRVEAGDEADYYCQVWDASAGYGVVFGCGTKLTVL
Molecule B18 returned a dissociation constant (Kd) of 74.1 nM.

B19: MA 81-B9 CC (U4L) (antibody, V domains shown)
VH: QVQLQESGPGLVKPSETLSLTCTVSGDSISSSRYYWGWIRQPPGKCLEWIGSIYYSGSTYYNPSLKSRVTISVDTSKNQFSLKLSSVTAADTAVYYCARGIFGVITYFDYWGQGTLVTVSS
VL: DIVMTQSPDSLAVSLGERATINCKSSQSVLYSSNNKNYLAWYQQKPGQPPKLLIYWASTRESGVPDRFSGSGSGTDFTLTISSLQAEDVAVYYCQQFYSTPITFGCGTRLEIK
The molecule B19 had a Kd of 18.8 nM.

B20: MA 09-G10 CC (C4K) (antibody, V domains shown)
VH: B12 VH with V2I, A10T, E52G, S55I, E56Y
VL: DIQMTQSPSSLSASVGDRVTITCQASQDISNYFNWYQQKPGKAPKLLIYAASSLQSGVPSRFSGSGSGTDFTLTISSLQPEDFATYYCQQSYITPFTFGCGTKVEIK
B20 came in with a Kd of 0.8 nM.

B21: MA 09-F12 CC (D1U) (antibody, V domains shown)
VH: B12 VH with V2I, E52L, H54Y, S55W, E56N
VL: B20 VL with F33L, S65R, I93Y, T94Y, F96T, T97L
B21 gave a Kd of 0.5 nM.

B22: MA 09-H11 CC (I8L) (antibody, V domains shown)
VH: B12 VH with V2I, A10T, E52L, H54Y, S55W, E56N
VL: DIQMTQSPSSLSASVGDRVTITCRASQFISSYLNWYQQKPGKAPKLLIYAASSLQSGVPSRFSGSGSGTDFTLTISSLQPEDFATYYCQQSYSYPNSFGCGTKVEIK
Turning to B22, the Kd was 0.5 nM.

B23: MA 09-H10 CC (B6N) (antibody, V domains shown)
VH: B12 VH with V2I, A10T, E52L, H54Y, S55W, E56N
VL: B20 VL with F33L, S65R, I93T, T94P, F96T
B23 came in with an equilibrium dissociation constant (Kd) of 0.6 nM.

B24: MA 09-F11 CC (L6Q) (antibody, V domains shown)
VH: B12 VH with V2I, A10M, E52L, H54Y, S55W, E56N
VL: B20 VL with S9D, F33L, I93M, T94W, F96T, T97I
Regarding B24, the affinity, expressed as Kd, was 0.6 nM. This lies in the sub-nanomolar range.
